# Laboratory results as given in patent US6632621B1, “G protein-coupled receptor-like receptors and modulators thereof” (priority 1999, dated 2003).
# *1 amine or outer side, *2 acyl side, *3 side chain or, on linkers, in order; H or OH if unused. Where no end group is shown, it is not given here. [ ]: non-standard residue; d: D form. Tyr(125I) = 125I-iodinated Tyr, O=C([C@H](Cc1ccc(O[*:3])c([125I])c1)N[*:1])[*:2]; Tyr(3-I) = N[C@@H](Cc1ccc(O)c(I)c1)C(=O)O; Nle = CCCC[C@H](N)C(=O)O
# T1: CEGPCR4 receptor (Caenorhabditis elegans, UniProt A0A078BTK0)
# T1 sequence (A0A078BTK0 1-376): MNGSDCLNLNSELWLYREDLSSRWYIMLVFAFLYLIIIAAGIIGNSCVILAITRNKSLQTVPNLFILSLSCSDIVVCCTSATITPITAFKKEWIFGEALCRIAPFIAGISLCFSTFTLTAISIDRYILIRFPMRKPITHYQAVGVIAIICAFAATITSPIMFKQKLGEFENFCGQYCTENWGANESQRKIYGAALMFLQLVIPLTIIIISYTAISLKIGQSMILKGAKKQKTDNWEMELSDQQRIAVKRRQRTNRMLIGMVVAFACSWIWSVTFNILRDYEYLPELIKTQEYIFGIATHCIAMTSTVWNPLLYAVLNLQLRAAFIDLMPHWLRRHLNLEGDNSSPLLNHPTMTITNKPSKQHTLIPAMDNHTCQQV
# T2: CEGPCR12h receptor (Caenorhabditis elegans, UniProt Q20275)
# T2 sequence (Q20275 1-402): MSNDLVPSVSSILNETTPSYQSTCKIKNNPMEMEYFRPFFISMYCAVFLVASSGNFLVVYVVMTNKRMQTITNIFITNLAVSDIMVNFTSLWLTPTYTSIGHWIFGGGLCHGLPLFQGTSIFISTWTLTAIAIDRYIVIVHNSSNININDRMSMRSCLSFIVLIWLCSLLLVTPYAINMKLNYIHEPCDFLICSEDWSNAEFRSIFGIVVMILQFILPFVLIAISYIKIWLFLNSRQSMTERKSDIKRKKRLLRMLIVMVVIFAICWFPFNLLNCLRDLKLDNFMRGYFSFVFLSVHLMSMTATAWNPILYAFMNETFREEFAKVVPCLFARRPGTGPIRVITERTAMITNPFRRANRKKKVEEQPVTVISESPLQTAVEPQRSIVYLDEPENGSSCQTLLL
# T3: CEGPCR4 (C. elegans)
# T3 construct: Expressed in CHO cells; also called CEGPCR4 receptor; CEGPCR4/CHO membranes
# T3 chain: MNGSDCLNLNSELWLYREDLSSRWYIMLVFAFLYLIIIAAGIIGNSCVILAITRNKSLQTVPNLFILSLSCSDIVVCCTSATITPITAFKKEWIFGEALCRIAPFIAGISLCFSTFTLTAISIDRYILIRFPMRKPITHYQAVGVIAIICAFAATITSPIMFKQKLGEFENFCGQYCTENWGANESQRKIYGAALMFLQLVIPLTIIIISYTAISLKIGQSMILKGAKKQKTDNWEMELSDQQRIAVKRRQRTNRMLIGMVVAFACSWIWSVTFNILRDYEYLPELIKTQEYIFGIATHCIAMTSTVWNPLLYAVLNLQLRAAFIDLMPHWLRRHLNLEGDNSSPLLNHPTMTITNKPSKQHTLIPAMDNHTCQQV
# T4: CEGPCR7 (C. elegans), Q18534
# T4 chain: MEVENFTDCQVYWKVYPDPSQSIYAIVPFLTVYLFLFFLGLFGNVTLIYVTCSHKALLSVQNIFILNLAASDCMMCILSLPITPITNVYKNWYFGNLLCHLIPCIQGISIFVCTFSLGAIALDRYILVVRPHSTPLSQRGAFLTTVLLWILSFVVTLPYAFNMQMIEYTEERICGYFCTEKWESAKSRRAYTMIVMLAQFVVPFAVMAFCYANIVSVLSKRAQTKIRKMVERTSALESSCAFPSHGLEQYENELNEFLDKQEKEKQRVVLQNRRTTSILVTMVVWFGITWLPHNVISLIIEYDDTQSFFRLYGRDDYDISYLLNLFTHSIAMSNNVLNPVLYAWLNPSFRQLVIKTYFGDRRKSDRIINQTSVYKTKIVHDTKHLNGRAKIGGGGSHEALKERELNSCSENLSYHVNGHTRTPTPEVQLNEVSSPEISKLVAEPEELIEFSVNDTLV
# B1: 3-Iodo-Y-DVPGVLRF-NH2 (peptide)
# peptide: [Tyr(3-I)]DVPGVLRF-NH2
# modifications: N-terminus assumed
# SMILES: CC(C)C[C@H](NC(=O)[C@@H](NC(=O)CNC(=O)[C@@H]1CCCN1C(=O)[C@@H](NC(=O)[C@H](CC(=O)O)NC(=O)[C@@H](N)Cc1ccc(O)c(I)c1)C(C)C)C(C)C)C(=O)N[C@@H](CCCNC(=N)N)C(=O)N[C@@H](Cc1ccccc1)C(N)=O
# notes: Synthetic flp18 analog; the radioiodinated form is treated as the same molecule
# B2: ILNleRF-NH2 (peptide)
# peptide: IL[Nle]RF-NH2
# modifications: N-terminus assumed
# SMILES: CCCC[C@H](NC(=O)[C@H](CC(C)C)NC(=O)[C@@H](N)[C@@H](C)CC)C(=O)N[C@@H](CCCNC(=N)N)C(=O)N[C@@H](Cc1ccccc1)C(N)=O
# notes: synthetic
# What was measured:
# CEGPCR4 receptor [1] = molecular target: T1, CEGPCR4 receptor; assay: Flp18 binding assay: [125I]YDVPGVLRFamide binding and competition on CEGPCR4/CHO membranes; set-up: species or system C. elegans; conditions: in words
# Procedure: A peptide ligand screening assay that measures ligand binding to a suitable GPCR-like receptor according to the invention is exemplified using a modified C. elegans Flp18 peptide ligand.
# Membranes for use in the assay are derived from cells stably transfected with a GPCR-like receptor expression construct. The transfected cells are grown in 10 cm dishes to subconfluence, rinsed once with 5 ml of ice-cold Ca^2+/Mg^2+—free PBS, and scraped into 5 ml of the same buffer. Cells are pelleted by centrifugation (500×g, 5 minutes), resuspended in 25 mM Tris, pH 7.5, 5 mM EDTA, 5 mM EDTA, pH 7.5 (TEE), and frozen in liquid nitrogen. After thawing, the cells are homogenized using a Dounce homogenizer (one ml TEE per plate of cells), and centrifuged at 1,000×g for 5 minutes to remove nuclei and unbroken cells.
# The homogenate supernatant is centrifuged at 20,000×g for 20 minutes to isolate the membrane fraction, and the membrane pellet is washed once with TEE and resuspended in binding buffer (20 mM HEPES, pH 7.5, 150 mM NaCl, 10 mM MgCl2, 1 mM EDTA). […]
# The peptide ligand screening assay is facilitated by use of 96-well plates Millipore Multiscreen® filtration plates (FB opaque 1.0 μM glass fiber type B, catalog number MAFBNOB50). […] The following day, the plate is counted in a Microbeta® scintillation counter.
# CEGPCR19.2 = CEGPCR19.2 (Caenorhabditis elegans, UniProt H2KZY4); assay: calcium mobilization assay (FLIPR), transiently transfected CHO cells, CEGPCR19.2; type: cell-based, C. elegans; conditions: Table 13; peptides at 10 μM
# Procedure: Changes in intracellular calcium levels are another recognized indicator of […] receptor activity, and such assays can be employed to assay for modulators of GPCR-like receptor activity. For example, CHO cells stably transfected with a GPCR-like receptor expression construct are plated at a density of 4×10^4 cells/well in Packard black-walled 96-well plates specially designed to isolate fluorescent signals to individual wells. The cells are incubated for 60 minutes at 37° C. in modified Dulbecco's PBS (D-PBS), containing 36 mg/L pyruvate and 1 g/L glucose with the addition of 2.5 mM probenecid (Sigma Chemical Co.) and one of four calcium indicator dyes (Fluo3™ AM, Fluo4™ AM, Calcium Green™-1 AM, or Oregon Green™ 488 BAPTA-1 AM) at a concentration of 4 μM. Plates are washed once with modified D-PBS […] 1% fetal bovine serum and incubated for 10 minutes at 37° C. to remove residual dye from the cellular membrane. In addition, a series of washes with modified D-PBS is performed immediately prior to activation of the calcium response.
# Calcium response is initiated by the addition of one or more candidate receptor agonist compounds, or a positive control such as a calcium ionophore A23187 (10 μM), or ATP (4 μM). Fluorescence is measured by Molecular Device's FLIPR with an argon laser, excitation at 488 nm. […] Basal fluorescence of cells was measured for 20 seconds prior to addition of agonist, ATP, or A23187, and was subtracted from the response signal. The calcium signal is measured for approximately 200 seconds, taking readings every two seconds. […]
# This appears especially useful for the assessment of possible activation of orphan GPCRs (i.e., GPCRs having unknown functions and unknown signaling pathways). […] Because the GTPγS assay is known to poorly recognize GPCRs coupled to the Gq class of G-proteins, a Ca^+2 mobilization assay, based on a FLIPR readout, was used as well to evaluate putative Gq-couplcd orphan GPCRs transiently transfected into CHO cells. […] Without the temperature downshift, expression of functional receptor could not be detected. […]
# CEGPCR4 receptor [2] = molecular target: T1, CEGPCR4 receptor; assay: [35S]GTPγS binding assay, membranes of CHO cells transfected with CEGPCR4; type: biochemical, C. elegans
# Procedure: Recombinant pCR3.1 clones encoding invertebrate GPCR-like receptors were transformed into wild-type CHO-K1 cells and functional expression was achieved using a temperature-shift incubation protocol. The CHO-K1 cells were cultured at 37° C. in a humidified atmosphere of 5% CO2 in air in DMEM medium supplemented with 10% heat-inactivated fetal bovine serum (i.e., FBS), 10 μg/ml gentamicin, and 0.1 mM nonessential amino acids to give complete DMEM medium. Additionally, for incubations at temperatures lower than 37° C., the medium was fortified with 10 mM HEPES (pH 7.4). Cells were transfected with recombinant pCR3.1 clones containing GPCR-like receptor DNAs, using LipofectAMINE PLUS™, essentially according to the manufacturer's instructions. […] In separate plastic tubes, PLUS (20 μl/plate; Life Technologies) was added to 0.75 ml/plate of recombinant plasmid DNA in OptiMEM (5 μg/plate; Gibco/BRL—Life Technologies), mixed and incubated at room temperature for 15 minutes. Separately, LipofectAMINE (30 μl/plate) was mixed with 0.75 ml OptiMEM and added to the pre-complexed DNA/PLUS mixture and incubated at room temperature for 15 minutes. […]
# To assess expression, membranes were prepared from transfected CHO-K1 cells. […] Membrane protein concentration was determined using the BCA Protein Assay Reagent from Pierce (Rockford, Ill.), with bovine serum albumin (i.e., BSA) as a standard. […]
# CEGPCR12h receptor = molecular target: T2, CEGPCR12h receptor; assay: [35S]GTPγS binding assay, CEGPCR12h expressed in CHO cells; type: biochemical, C. elegans
# Procedure: Recombinant pCR3.1 clones encoding invertebrate GPCR-like receptors were transformed into wild-type CHO-K1 cells and functional expression was achieved using a temperature-shift incubation protocol. The CHO-K1 cells were cultured at 37° C. in a humidified atmosphere of 5% CO2 in air in DMEM medium supplemented with 10% heat-inactivated fetal bovine serum (i.e., FBS), 10 μg/ml gentamicin, and 0.1 mM nonessential amino acids to give complete DMEM medium. Additionally, for incubations at temperatures lower than 37° C., the medium was fortified with 10 mM HEPES (pH 7.4). Cells were transfected with recombinant pCR3.1 clones containing GPCR-like receptor DNAs, using LipofectAMINE PLUS™, essentially according to the manufacturer's instructions. […] In separate plastic tubes, PLUS (20 μl/plate; Life Technologies) was added to 0.75 ml/plate of recombinant plasmid DNA in OptiMEM (5 μg/plate; Gibco/BRL—Life Technologies), mixed and incubated at room temperature for 15 minutes. Separately, LipofectAMINE (30 μl/plate) was mixed with 0.75 ml OptiMEM and added to the pre-complexed DNA/PLUS mixture and incubated at room temperature for 15 minutes. The culture medium was then replaced with serum-free transfection medium (DMEM, 5 ml/plate). The DNA-PLUS-LipofectAMINE complex was then added to the plates (1.5 ml/plate) and mixed gently into the medium, followed by a 3 hour incubation at 37° C. in 5% CO2. At this time, the medium was supplemented with complete DMEM medium containing 20% FBS (6.5 ml/plate) and incubation was continued at 37° C. in 5% CO2. After a total of 24 hours at 37° C. in 5% CO2, the medium was replaced with complete DMEM medium fortified with 10 mM HEPES (10 ml/plate) and the cells were moved to an incubator maintained at 28-30° C. in a humidified atmosphere of 5% CO2 in air. The incubation continued for an additional 24 hours, typically at the lower temperature indicated above. A plasmid encoding Green Fluorescent Protein (i.e., GFP, 4 μg/plate) was used for transient GFP expression in CHO-K1 cells to estimate the transfection yields under the same conditions as used for GPCR-like receptor polynucleotides.
# To assess expression, membranes were prepared from transfected CHO-K1 cells. Transfected cells were washed once with ice-cold Dulbecco's phosphate-buffered saline (i.e., PBS), 5 ml per 10 cm plate, and the cells were scraped into 5 ml of the same buffer. Cell suspensions from multiple plates were combined and centrifuged at 500×g for 10 minutes at 4° C. The cell pellet was reconstituted in ice-cold TEE (25 mM Tris, pH 7.4, 5 mM EGTA, 5 mM EDTA). Convenient aliquots were snap-frozen in liquid nitrogen and stored at −70° C. After thawing, the cells were homogenized and centrifuged at 500×g for 5 minutes at 4° C. to pellet nuclei and unbroken cells. Tile supernatant was centrifuged at 47,000×g for 30 minutes at 4° C. The membrane pellet was washed once with TEE, resuspended in 20 mM HEPES, pH 7.4, 100 mM NaCl, 10 mM MgCl2, 1 mM EDTA (assay buffer), distributed into aliquots of 0.5-1.0 ml, and frozen in liquid nitrogen. Membrane aliquots were stored at −70° C. Membrane protein concentration was determined using the BCA Protein Assay Reagent from Pierce (Rockford, Ill.), with bovine serum albumin (i.e., BSA) as a standard.
# Aliquots of cell membranes prepared as described above and stored at −70° C. were thawed, homogenized, and diluted into buffer containing 20 mM HEPES, pH 7.4, 10 mM MgCl2, 1 mM EDTA, and 100 mM NaCl at a concentration of 10-50 μg/ml. Reaction mixtures were prepared in 96-well polypropylene plate, Nunc. Twenty microliters of a 10× putative modulator compound (including but not limited to potential peptide ligands) solution or a water control (20 μl), 18.2 µM GDP (0.11 ml, 10 μM final concentration), and a membrane preparation were mixed and placed on ice. The modulator/ligand-GDP-membrane mixtures were incubated for 20 minutes at room temperature on a shaking platform and then placed on ice.
# CEGPCR12c = assay: [35S]GTPγS binding assay, membranes of CHO cells transfected with CEGPCR12c; type: biochemical, C. elegans
# CEGPCR4 [3] = molecular target: T3, CEGPCR4; assay: radioligand binding to CEGPCR4/CHO membranes
# CEGPCR4 [4] = molecular target: T3, CEGPCR4; assay: competition binding assay, CEGPCR4/CHO membranes; IC50 range printed once for block r19-r25
# [5] = molecular target: T4, CEGPCR7 (C. elegans), Q18534; assay: cell-based or functional assay
# [6] = membranes from cells transfected and maintained at 37° C.
# [7] = temperature shift to 28° C. 24 hours after transfection
# Chain of CEGPCR19.2 (H2KZY4 entry or part of it): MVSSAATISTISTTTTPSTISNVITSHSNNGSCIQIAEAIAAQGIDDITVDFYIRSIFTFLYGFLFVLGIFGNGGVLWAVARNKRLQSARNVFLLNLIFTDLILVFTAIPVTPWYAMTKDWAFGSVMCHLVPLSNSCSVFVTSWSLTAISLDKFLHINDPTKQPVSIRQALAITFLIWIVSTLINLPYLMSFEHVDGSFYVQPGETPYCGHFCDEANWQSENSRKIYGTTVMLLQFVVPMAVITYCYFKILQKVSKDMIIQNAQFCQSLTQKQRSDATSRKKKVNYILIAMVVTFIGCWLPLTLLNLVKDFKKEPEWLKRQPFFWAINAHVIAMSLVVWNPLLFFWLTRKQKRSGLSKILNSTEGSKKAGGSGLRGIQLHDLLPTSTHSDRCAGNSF
molecule,measurement,setting,value
[^125I-Y]DVPGVLRF-NH2 ([Tyr(125I)]DVPGVLRF-NH2),"Kd, binding to the CEGPCR4/CHO membranes",CEGPCR4 receptor [1],subnanomolar range
SQPNFLRF-NH2,activity at single concentration,CEGPCR19.2,peptides active
PDVDHVFLRF-NH2 [PDVDHVFLRF-NH2],receptor activation by matched ligand,CEGPCR4 receptor [2]; [6],not detectably activated
same,ligand-induced [35S]GTPγS binding,CEGPCR4 receptor [2]; [7],significant stimulation
same,EC50,CEGPCR12h receptor; EC50,330 nM
same,EC50,"CEGPCR12h receptor; EC50 range, Table 11, one range for the group, results apply to all CEGPCR12 isoforms",300 to 500 nM
same,receptor activation by matched ligand,CEGPCR12c; [6],not detectably activated
same,ligand-induced [35S]GTPγS binding,CEGPCR12c; [7],significant stimulation
LQPNFLRF-NH2,activity at single concentration,CEGPCR19.2,peptides active
KPNFIRF-NH2,activity at single concentration,CEGPCR19.2,peptides active
B1,Kd,CEGPCR4 [3],< 1 nM
KPNFLRF-NH2 (flp1) [KPNFLRF-NH2],binding result,CEGPCR4 [4],binds
B2,binding result,CEGPCR4 [4],binds
GLGPRPLRF-NH2 […-NH2 (AF9)],"AF9-induced [35S]GTPγS binding, constant 37° C. (third experiment)",[5],1.4 fold
GNSFLRF-NH2 (also called GNSFLRFamide) [GNSFLRF-NH2],binding result,CEGPCR4 [4],binds
